According to publication PMC2998437, “S. aureus MscL Is a Pentamer In Vivo but of Variable Stoichiometries In Vitro: Implications for Detergent-Solubilized Membrane Proteins” (PLoS Biology, 2010):

How the values were obtained:
[1] = molecular target: L10C/L89C SaMscL (S. aureus) (UniProt Q6G9L1); test: cross-linking; in vivo disulfide trapping of double-cysteine mutants in the cell membrane; cells osmotically shocked (water with 1.5 uM copper phenanthroline, 15 min, 37 C) or mock shocked; non-reducing SDS-PAGE, anti-Penta His Western blot
[2] = molecular target: the molecule itself; test: cross-linking; purified protein in LDAO (2.1 mM final); 5 ug protein with 2 mM DSS on ice for 5 min; anti-Penta His Western blot
[3] = molecular target: the molecule itself; test: SEC-MALS; SaMscL purified in LDAO, then exchanged into C8E5 and measured the following day
[4] = molecular target: the molecule itself; test: cross-linking; in vivo disulfide trapping of double-cysteine mutants in the cell membrane; cells osmotically shocked (water with 1.5 uM copper phenanthroline, 15 min, 37 C) or mock shocked; non-reducing SDS-PAGE, anti-Penta His Western blot

Q: “L10C/L89C SaMscL (from UniProt Q6G9L1 1-120) (natural protein)” was tested. Which stoichiometry N [1] did it give?
A: Its stoichiometry N is 5.

B1: S. aureus mechanosensitive channel of large conductance (SaMscL) (natural protein, UniProt Q6G9L1 1-120, looked up)
chain: MLKEFKEFALKGNVLDLAIAVVMGAAFNKIISSLVENIIMPLIGKIFGSVDFAKEWSFWGIKYGLFIQSVIDFIIIAFALFIFVKIANTLMKKEEAEEEAVVEENVVLLTEIRDLLREKK
notes: MscL, large-conductance mechanosensitive channel of S. aureus, GenBank CAG43065; printed monomer mass 14.4 kDa; the printed GenBank entry holds; Pentamer in Triton X-100 and C8E5 and in vivo; tetramer in LDAO (copies would then be 4); Expressed from two vectors (pET21a, pB10) with no difference reported; also called S. aureus MscL; source: E. coli PB116 (pET21a), purified (DM extraction, Ni-NTA, …)
Q: B1 was tested. Which “stoichiometry N” value [2] did it give?
A: Its value is 4.

Q: What about the “stoichiometry N” value [3] of the same molecule?
A: Its value is 5.

B2: L10C/M91C SaMscL (natural protein)
chain: MLKEFKEFACKGNVLDLAIAVVMGAAFNKIISSLVENIIMPLIGKIFGSVDFAKEWSFWGIKYGLFIQSVIDFIIIAFALFIFVKIANTLCKKEEAEEEAVVEENVVLLTEIRDLLREKK
notes: also called L10C/M91C protein; source: bacterial cultures induced with 1 mM IPTG, in the cell membrane (cells lysed in sample buffer)
Q: Which “stoichiometry N” value [4] does the source give for B2 here?
A: The value was 5.
